Data from patent EP2830663B1 (Sorrento Therapeutics, Inc., dated 2019).

Molecular target: VEGFR2 on HUVECs (UniProt P35968 20-1356, limits assumed)
Experiment: cell-based or functional assay

VEGFR2 on HUVECs, sequence (P35968 20-1356 limits assumed): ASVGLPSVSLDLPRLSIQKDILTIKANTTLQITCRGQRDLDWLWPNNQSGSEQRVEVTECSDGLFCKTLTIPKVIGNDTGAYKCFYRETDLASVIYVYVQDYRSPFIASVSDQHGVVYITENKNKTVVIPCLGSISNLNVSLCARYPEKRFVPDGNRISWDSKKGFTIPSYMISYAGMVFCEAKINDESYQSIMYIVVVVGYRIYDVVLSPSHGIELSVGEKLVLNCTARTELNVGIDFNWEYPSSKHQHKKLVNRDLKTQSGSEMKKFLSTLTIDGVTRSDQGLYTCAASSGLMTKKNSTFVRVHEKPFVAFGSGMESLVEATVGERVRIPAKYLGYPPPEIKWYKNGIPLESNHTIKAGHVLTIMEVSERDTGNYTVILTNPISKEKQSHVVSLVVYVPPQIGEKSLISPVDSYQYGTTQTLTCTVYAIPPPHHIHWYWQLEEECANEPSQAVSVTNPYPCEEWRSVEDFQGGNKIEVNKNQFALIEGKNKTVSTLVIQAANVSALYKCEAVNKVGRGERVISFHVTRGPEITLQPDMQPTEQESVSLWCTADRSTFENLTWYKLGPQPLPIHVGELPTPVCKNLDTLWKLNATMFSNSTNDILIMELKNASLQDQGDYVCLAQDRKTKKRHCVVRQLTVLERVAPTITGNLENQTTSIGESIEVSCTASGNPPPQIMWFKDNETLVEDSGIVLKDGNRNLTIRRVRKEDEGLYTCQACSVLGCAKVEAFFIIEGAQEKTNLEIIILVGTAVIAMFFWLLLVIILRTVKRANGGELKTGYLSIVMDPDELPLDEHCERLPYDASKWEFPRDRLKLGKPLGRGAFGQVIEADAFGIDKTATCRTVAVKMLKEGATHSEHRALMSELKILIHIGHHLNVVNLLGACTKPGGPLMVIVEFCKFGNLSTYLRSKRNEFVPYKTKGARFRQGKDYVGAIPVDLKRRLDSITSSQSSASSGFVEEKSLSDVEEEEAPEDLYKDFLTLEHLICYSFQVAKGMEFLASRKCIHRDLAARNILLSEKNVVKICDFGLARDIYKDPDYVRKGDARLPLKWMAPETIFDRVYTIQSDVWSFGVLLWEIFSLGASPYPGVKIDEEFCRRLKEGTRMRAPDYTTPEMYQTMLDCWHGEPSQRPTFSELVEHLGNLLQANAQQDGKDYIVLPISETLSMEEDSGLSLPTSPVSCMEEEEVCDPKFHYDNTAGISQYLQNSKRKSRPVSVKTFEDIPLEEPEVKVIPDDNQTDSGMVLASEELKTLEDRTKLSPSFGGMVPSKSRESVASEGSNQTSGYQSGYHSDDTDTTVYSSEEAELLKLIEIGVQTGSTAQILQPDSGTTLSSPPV

B1: VK-B8 (antibody, V domains shown)
VH: QVQLVQSGAEVKKPGSSVKVSCKAYGGTFGSYGVSWVRRAPGQGLEWMGRLIPIFGTRDYAQKFQGRVTLTADESTNTAYMELSSLRSEDTAVYYCARDGDYYGSGSYYGMDVWGQGTLVTVSS
VL: ETTLTQSPATLSVSPGERATVSCRASQSLGSNLGWFQQKPGQAPRLLIYGASTRATGIPARFSGSGSGTEFTLTISSLQSEDFAVYFCQQYNDWPITFGQGTRLEIK
IC50, inhibition of VEGF-induced HUVEC cell migration (Figure 14): 530 pM | IC50, inhibition of VEGF-induced HUVEC cell proliferation (Figure 13): 14900 pM | IC50, inhibition of VEGF-induced HUVEC migration (modified Boyden chamber): 500 pM | IC50, inhibition of VEGF-induced HUVEC proliferation: 14000 pM | IC50, inhibition of VEGF-induced p44/p42 MAPK (Erk1/2) phosphorylation in HUVECs (ELISA): 80 pM
